Test results from patent US20090311248A1 (published 2009).

B1: 17H1 (antibody, V domains shown)
VH: QVQFVQSGAEVKKPGASVKVSCKASGYTFTRHAIHWVRQAPGQRLEWMGWINPGNGNAKYSQKFQGRVTITRDTPASTVYMELSSLRSEDMGVYYCARDGGYSHDYSYFYGLDVWGPGTTVIVSS
VL: QSVLTQPPSASGTPGQRVTISCSGSSSNIGGNFVDWYQQFPGTAPKLLIYTNDQRPSGVPARFSGSKSGTSASLAISGLRSEDEADYYCAAWDDIVNGWVFGGGTKLTVRG
notes: also called 17H1D9; IGH 520
B2: 48G5 (antibody, V domains shown)
VH: QVQLVQSGAEVKRPGASVKVSCKASGYTFTSYAIHWVRQAPGQRLEWMGWINPGNGNAKYSQRFQGRVIISRDTSATTSYMELSSLTSEDTAVYSCARDRGFDLLTGHYLGLDPWGQGTLVTVSS
VL: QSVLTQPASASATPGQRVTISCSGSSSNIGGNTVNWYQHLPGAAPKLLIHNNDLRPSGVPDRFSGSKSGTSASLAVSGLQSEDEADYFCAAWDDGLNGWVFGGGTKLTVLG
notes: also called 48G5C4; IGH 526

Legend:
[1] = molecular target: IGP 2254 (Hepatitis C virus (HCV), N-terminal Biotin; C-terminal -CONH2); experiment: BIAcore, antibody immobilized, peptide IGP 2254 in solution
[2] = molecular target: HCV E1 envelope glycoprotein of genotype 3a (strain S52) on retroviral pseudoparticles (Hepatitis C virus genotype 3a); experiment: cell-based or functional assay
[3] = molecular target: HCV E1 envelope glycoprotein of genotype 2a (pJ6CF) on retroviral pseudoparticles (Hepatitis C virus genotype 2a, UniProt P26660 1-3033); experiment: cell-based or functional assay
[4] = molecular target: HCV E1 envelope glycoprotein of genotype 1a strain H77 on retroviral pseudoparticles (HCVpp) (Hepatitis C virus genotype 1a strain H77, UniProt P27958 1-3011); experiment: cell-based or functional assay
[5] = molecular target: HCV E1 envelope glycoprotein of genotype 1b (HCCl 66) on retroviral pseudoparticles (Hepatitis C virus genotype 1b); experiment: cell-based or functional assay
[6] = molecular target: HCV E1 envelope glycoprotein of genotype 6a (strain HK-6a) on retroviral pseudoparticles (Hepatitis C virus genotype 6a); experiment: cell-based or functional assay
[7] = molecular target: HCV E1 envelope glycoprotein of genotype 4a (strain ED43) on retroviral pseudoparticles (Hepatitis C virus genotype 4a, UniProt O39929 1-3008); experiment: cell-based or functional assay
[8] = molecular target: HCV E1 envelope glycoprotein of genotype 5a (strain SA13) on retroviral pseudoparticles (Hepatitis C virus genotype 5a, UniProt O91936 1-3014); experiment: cell-based or functional assay
HCV E1 envelope glycoprotein of genotype 5a (strain SA13) on retroviral pseudoparticles, sequence (O91936 whole entry): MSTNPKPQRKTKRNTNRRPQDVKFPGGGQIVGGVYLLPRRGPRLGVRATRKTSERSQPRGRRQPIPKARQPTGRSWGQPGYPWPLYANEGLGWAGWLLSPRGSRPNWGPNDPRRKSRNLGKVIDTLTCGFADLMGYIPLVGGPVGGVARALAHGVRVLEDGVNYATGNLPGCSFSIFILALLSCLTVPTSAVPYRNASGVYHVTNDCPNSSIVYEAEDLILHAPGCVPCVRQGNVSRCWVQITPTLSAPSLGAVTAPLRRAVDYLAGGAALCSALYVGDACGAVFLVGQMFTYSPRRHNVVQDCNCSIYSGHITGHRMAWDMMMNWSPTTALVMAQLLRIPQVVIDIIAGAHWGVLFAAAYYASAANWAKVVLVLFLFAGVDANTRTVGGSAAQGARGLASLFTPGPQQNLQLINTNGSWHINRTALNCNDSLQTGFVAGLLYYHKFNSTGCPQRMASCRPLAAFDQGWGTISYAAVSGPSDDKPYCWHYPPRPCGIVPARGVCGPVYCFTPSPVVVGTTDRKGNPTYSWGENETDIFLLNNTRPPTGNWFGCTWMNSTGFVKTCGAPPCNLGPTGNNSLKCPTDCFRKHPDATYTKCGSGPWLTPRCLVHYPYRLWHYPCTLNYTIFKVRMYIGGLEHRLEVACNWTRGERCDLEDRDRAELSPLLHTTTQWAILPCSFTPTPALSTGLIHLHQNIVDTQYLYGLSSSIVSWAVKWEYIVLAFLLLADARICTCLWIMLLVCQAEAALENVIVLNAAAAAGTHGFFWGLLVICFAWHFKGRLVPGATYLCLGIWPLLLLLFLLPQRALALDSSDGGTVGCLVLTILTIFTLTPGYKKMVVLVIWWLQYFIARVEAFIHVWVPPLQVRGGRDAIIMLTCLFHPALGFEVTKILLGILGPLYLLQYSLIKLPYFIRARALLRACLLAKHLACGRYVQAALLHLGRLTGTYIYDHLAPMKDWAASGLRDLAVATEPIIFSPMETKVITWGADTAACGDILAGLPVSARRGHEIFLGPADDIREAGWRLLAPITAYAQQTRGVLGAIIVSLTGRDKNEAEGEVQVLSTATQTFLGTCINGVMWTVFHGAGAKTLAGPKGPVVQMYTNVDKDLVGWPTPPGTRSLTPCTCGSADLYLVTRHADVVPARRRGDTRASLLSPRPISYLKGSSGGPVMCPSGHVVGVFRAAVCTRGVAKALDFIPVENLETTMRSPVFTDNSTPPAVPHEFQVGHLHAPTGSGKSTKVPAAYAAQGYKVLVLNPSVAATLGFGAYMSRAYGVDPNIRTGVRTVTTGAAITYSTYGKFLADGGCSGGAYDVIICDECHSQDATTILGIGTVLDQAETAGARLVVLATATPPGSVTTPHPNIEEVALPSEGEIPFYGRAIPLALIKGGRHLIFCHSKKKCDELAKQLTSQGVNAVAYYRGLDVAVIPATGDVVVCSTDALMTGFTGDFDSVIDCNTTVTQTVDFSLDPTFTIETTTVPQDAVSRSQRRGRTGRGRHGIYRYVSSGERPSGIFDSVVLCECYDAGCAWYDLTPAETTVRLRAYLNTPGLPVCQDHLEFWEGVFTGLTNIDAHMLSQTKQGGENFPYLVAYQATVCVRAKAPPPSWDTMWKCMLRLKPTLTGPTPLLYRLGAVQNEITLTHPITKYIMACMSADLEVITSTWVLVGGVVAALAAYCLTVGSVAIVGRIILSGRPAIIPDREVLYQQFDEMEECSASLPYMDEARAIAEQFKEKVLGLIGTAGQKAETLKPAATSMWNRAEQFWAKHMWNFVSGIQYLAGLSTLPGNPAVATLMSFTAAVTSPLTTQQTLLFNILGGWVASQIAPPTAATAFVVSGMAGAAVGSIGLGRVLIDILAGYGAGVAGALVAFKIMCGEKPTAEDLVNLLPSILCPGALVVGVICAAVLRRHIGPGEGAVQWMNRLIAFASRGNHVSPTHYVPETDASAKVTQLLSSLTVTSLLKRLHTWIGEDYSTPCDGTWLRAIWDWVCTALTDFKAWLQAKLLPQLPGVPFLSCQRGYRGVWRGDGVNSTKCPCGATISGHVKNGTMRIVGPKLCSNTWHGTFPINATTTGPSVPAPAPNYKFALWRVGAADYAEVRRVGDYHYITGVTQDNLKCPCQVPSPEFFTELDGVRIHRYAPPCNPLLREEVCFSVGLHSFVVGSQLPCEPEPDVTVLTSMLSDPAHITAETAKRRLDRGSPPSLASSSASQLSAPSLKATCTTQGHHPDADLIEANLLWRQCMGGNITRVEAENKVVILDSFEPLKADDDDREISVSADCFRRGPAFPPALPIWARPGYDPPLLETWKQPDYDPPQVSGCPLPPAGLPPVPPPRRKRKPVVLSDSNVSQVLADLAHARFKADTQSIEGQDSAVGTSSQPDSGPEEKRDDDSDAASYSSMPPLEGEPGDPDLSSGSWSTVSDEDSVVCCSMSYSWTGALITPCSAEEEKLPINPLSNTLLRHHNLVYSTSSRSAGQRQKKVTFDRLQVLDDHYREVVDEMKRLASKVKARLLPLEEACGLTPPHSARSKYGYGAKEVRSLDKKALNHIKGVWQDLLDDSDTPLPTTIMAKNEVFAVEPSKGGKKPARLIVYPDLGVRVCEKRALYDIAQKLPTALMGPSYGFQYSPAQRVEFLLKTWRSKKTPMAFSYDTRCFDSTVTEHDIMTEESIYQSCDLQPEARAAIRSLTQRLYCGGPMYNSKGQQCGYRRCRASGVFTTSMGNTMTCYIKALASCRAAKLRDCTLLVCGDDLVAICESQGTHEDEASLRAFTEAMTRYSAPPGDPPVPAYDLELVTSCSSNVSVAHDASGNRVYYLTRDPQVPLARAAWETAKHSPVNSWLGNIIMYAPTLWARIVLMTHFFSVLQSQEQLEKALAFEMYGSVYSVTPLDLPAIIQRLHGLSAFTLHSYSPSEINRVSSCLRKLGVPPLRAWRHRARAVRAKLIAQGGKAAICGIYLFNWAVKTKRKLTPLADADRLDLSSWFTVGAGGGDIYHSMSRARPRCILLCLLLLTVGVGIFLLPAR

[9] = molecular target: T1, IGP 2241 (Hepatitis C virus (HCV)); experiment: ELISA, […], antibody at 1.25 µg/mL
T1 construct: E1 peptide

[10] = molecular target: T2, IGP 2138 (Hepatitis C virus (HCV)); experiment: ELISA, […], antibody at 1.25 µg/mL
T2 construct: also called WDMMMNW

[11] = molecular target: T3, IGP 2137 (Hepatitis C virus (HCV)); experiment: ELISA, […], antibody at 1.25 µg/mL
T3 construct: also called RMAWDM

Binder	Kd [1] [nM]	koff [1] [s⁻¹]	kon [1] [M⁻¹ s⁻¹]	lowest concentration of antibody in µg/ml exhibiting at least 50% neutralization (HCVpp) [2] [µg/mL]	lowest concentration of antibody in µg/ml exhibiting at least 50% neutralization (HCVpp) [3] [µg/mL]	lowest concentration of antibody in µg/ml exhibiting at least 50% neutralization (HCVpp) [4] [µg/mL]	lowest concentration of antibody in µg/ml exhibiting at least 50% neutralization (HCVpp) [5] [µg/mL]	lowest concentration of antibody in µg/ml exhibiting at least 50% neutralization (HCVpp) [6] [µg/mL]	lowest concentration of antibody in µg/ml exhibiting at least 50% neutralization (HCVpp) [7] [µg/mL]	lowest concentration of antibody in µg/ml exhibiting at least 50% neutralization (HCVpp) [8] [µg/mL]	binding result [9]	binding result [10]	binding result [11]
B1	0.15	0.000357	2.35e+06	< 50	50	3.1	6.2	6.2	< 1	< 1			
B2	0.2	0.000305	1.54e+06	> 50	50	< 1	12.5	3.1	6.2	1.6	no binding (tested: 1.25 µg/ml)	no binding (tested: 1.25 µg/ml)	no binding (tested: 1.25 µg/ml)
